In paper PMC12507909, “The reticulocyte restriction: invasion ligand RBP1a of Plasmodium vivax targets human TfR1, prohibitin-2, and basigin” (Frontiers in Cellular and Infection Microbiology, 2025):

Biological target: T1, transferrin receptor protein 1 (TfR1), recombinant extracellular domain Cys89-Phe760 (human, UniProt P02786 89-760)
T1 construct: Human transferrin receptor protein 1 (TfR1/CD71), extracellular domain, Cys89-Phe760; also called CD71; the 89–760 domain of TfR1; source: bought: SinoBiological
T1 sequence (P02786 89-760): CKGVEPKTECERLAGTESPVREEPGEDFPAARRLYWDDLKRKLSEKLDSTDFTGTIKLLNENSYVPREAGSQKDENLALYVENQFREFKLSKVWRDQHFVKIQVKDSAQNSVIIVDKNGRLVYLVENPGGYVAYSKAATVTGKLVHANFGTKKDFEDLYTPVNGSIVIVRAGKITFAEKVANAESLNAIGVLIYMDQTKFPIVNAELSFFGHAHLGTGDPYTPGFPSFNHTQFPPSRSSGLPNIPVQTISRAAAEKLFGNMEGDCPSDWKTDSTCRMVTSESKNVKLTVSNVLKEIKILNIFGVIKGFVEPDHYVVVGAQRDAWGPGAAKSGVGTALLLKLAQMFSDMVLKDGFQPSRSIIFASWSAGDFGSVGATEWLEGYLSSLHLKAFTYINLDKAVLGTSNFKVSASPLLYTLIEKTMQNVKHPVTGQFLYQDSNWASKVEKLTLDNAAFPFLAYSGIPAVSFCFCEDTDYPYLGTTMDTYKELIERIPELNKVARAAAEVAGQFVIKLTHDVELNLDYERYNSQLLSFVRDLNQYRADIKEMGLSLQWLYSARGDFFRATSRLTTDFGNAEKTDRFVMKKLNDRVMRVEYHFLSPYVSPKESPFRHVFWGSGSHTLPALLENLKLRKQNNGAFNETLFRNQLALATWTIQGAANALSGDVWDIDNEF
Test: ELISA; Maxisorp plates coated with 5 μg/mL of each receptor candidate; serial dilutions of PvRBP1a_(158-650)LTID and LTID (48,000 pM to 187.5 pM and 4,000 pM to 1.28 pM) in blocking solution, 16 hours at 4°C; detected with a TurboID-specific antibody; one-site binding saturation model; triplicates
Conditions: both partners purified

B1: PvRBP1a_(158-650)LTID fusion protein (domain or fragment)
chain: YNSIVDMSEKLKENDKYNLVFDMEIDFVDLQFFNLILELIPKDSQYHTYYEETLKQQVTEYTNSLKTLMDSCISEKDQMIILEYEINYAKRKSIETETLGDKETKLSAVSQAYAKHLESYKGVLKPKLNDIKNNAFSVLKDSYCKDNCGEYVQKYNTMRKNFISSSDQYKMEAYMYIPKSINDYTVLDKILSESNELGIDIQETVNSLKLLGEEISEVSHLYVINSTLIDDAAKKLESINEEDESAEIDLQKFEDNSKALANNYCIFQYIKTLNEPIKKAYESKVIKSNELLSTIIDTLGKSATALQESTFNQEECNKIKTEAEKVKDDAEDIYEKNEQIYYEIPESEDETIADKINDLQYLIDQMNEYKDEIVNNSEFISNRYKNIYENLKETYETELNDIGQLENDTSKVNFYLMQIRKINTEKTKIDESLQTVEKFYKGILDLKEKIYELKIEFEKSVTEINRLQDGESARDLHEEQIKEILDKMAKKVH
notes: Synthetic gene optimised for E. coli, in pET-28a(+) between NcoI and XhoI; About 94 kDa; Details of expression and purification are in the Supplementary Data; also called PvRBP1a (158–650)-TurboID; PvRBP1a_(158-650)LITD
Kd: 1.15 nM
